# Values quoted from earlier work in PMC8393326, “A Thermodynamic Analysis of the Binding Specificity between Four Human PDZ Domains and Eight Host, Viral and Designed Ligands” (Biomolecules, 2021).
# How the values were obtained:
# [1] = target: phosphorylated ERBB2 peptide (Homo sapiens)
# [2] = target: ERBB2 peptide (Homo sapiens)
# Erbin PDZ, sequence (Q96RT1 1318-1412): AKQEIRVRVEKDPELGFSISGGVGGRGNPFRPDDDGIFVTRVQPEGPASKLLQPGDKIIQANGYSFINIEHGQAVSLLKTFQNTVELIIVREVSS
substance,measurement,setting,value
Erbin PDZ (from UniProt Q96RT1),Kd,[1],128 µM
same,Kd,[2],50 µM
